B1: GST-tagged HDM2 (349-497) (domain or fragment, UniProt Q00987-11 349-497, looked up)
chain: EKAKLENSTQAEEGFDVPDCKKTIVNDSRESCVEENDDKITQASQSQESEDYSQPSTSSSIIYSSQEDVKEFEREETQDKEESVESSLPLNAIEPCVICQGRPKNGCIVHGKTGHLMACFTCAKKLKKRNKPCPVCRQPIQMIVLTYFP
notes: source: expressed and purified
B2: His-S-tagged PDCD11 (1033-1431) (domain or fragment, human, UniProt Q14690 1033-1431, looked up)
chain: LSIGDMVTGTVKSIKPTHVVVTLEDGIIGCIHASHILDDVPEGTSPTTKLKVGKTVTARVIGGRDMKTFKYLPISHPRFVRTIPELSVRPSELEDGHTALNTHSVSPMEKIKQYQAGQTVTCFLKKYNVVKKWLEVEIAPDIRGRIPLLLTSLSFKVLKHPDKKFRVGQALRATVVGPDSSKTLLCLSLTGPHKLEEGEVAMGRVVKVTPNEGLTVSFPFGKIGTVSIFHMSDSYSETPLEDFVPQKVVRCYILSTADNVLTLSLRSSRTNPETKSKVEDPEINSIQDIKEGQLLRGYVGSIQPHGVFFRLGPSVVGLARYSHVSQHSPSKKALYNKHLPEGKLLTARVLRLNHQKNLVELSFLPGDTGKPDVLSASLEGQLTKQEERKTEAEERDQKG
notes: as for B1

What all share (test): pull-down; GST pulldown in vitro; GST-tagged p53 or HDM2 (full length or truncations) as bait, His-S-tagged PDCD11 (full length or truncations) as prey
What all share (conditions): both partners purified

In assay [1] the target is T1, His-S-tagged full-length PDCD11 (programmed cell death 11) (human, UniProt Q14690 1-1871).
T1 construct: programmed cell death 11 (PDCD11), human, Gene ID 22984, 1871 amino acids, full length; also called PDCD11-FL; ALG-4; source: expressed and purified

For assay [2], the target named is B2.
Assay [3] has as its target T2, GST-tagged full-length HDM2 (UniProt Q00987-11 1-497).
T2 construct: HDM2, full length; also called HDM2-FL; GST-HDM2; source: expressed and purified

T1 sequence (Q14690 whole entry): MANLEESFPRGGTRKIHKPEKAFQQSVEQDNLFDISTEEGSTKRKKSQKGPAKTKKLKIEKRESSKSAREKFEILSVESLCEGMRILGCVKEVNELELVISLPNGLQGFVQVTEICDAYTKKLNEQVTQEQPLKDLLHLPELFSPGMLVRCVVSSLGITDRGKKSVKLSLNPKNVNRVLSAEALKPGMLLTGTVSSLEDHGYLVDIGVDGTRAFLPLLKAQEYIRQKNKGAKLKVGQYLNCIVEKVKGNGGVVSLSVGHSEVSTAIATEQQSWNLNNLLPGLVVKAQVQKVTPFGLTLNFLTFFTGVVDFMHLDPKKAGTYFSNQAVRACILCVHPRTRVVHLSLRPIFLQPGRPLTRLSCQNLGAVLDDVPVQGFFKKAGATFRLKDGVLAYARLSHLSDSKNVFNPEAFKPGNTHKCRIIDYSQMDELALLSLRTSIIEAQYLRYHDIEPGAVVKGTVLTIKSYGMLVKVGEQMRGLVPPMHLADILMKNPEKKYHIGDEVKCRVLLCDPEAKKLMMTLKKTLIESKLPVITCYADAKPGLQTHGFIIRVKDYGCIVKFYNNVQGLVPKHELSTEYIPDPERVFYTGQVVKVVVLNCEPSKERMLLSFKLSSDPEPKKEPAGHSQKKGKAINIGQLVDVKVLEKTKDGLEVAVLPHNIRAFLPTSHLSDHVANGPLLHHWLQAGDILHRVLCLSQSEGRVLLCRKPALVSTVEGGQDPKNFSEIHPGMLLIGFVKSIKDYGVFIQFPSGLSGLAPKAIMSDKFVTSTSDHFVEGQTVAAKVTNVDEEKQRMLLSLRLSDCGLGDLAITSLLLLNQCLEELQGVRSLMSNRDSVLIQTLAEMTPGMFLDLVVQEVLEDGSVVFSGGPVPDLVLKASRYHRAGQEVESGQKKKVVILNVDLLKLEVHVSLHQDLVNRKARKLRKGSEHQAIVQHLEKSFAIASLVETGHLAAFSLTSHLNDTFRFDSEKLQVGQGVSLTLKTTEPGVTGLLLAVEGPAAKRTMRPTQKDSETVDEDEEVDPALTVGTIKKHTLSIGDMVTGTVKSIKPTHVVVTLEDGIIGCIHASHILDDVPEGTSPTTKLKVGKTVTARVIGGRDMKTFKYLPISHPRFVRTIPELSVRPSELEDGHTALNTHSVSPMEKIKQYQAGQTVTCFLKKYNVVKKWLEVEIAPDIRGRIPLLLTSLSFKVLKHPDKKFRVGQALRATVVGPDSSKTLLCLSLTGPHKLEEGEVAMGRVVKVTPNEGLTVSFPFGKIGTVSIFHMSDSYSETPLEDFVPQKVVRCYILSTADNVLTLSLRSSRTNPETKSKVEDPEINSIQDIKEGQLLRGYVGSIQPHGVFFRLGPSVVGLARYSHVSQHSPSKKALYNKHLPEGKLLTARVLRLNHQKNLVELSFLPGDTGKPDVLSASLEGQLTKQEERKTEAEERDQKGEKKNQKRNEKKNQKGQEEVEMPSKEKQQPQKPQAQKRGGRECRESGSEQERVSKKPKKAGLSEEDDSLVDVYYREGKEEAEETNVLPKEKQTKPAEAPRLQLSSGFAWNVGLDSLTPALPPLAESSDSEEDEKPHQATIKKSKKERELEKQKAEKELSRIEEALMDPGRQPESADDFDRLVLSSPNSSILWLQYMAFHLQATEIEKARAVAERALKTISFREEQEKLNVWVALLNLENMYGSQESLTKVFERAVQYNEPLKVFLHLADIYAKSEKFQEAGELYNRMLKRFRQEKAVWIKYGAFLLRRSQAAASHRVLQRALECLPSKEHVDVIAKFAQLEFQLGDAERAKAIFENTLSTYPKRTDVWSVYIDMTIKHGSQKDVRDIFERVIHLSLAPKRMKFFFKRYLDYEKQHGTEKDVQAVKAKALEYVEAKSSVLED

Turning to B1, the binding result in assay [1] and in assay [2] was “binds” in each case. As to B2, the binding result in assay [3] is listed as “binds”.

These data come from article PMC10703783, “Programmed cell death 11 modulates but not entirely relies on p53-HDM2 loop to facilitate G2/M transition in colorectal cancer cells” (Oncogenesis, 2023).
